Reference: patent US20110003343, “CONJUGATES OF BIOMOLECULES TO NANOPARTICLES” (LIFE TECHNOLOGIES CORPORATION, published 2011)

Tests used:
[1] = molecular target: Phi-29 (exo-) DNA polymerase exo- (substitutions not given) (Bacteriophage phi29) (UniProt P03680); settings: tpol, unit not shown; unit assumed
[2] = molecular target: Phi-29 (exo-) T373Y exo- (substitutions not given), T373Y (Bacteriophage phi29) (UniProt P03680); settings: tpol, unit not shown; unit assumed
[3] = molecular target: Phi-29 (exo-) T373R exo- (substitutions not given), T373R (Bacteriophage phi29) (UniProt P03680); settings: tpol, unit not shown; unit assumed
[4] = molecular target: T1, HP1 Phi29 DNA polymerase D12A/D66A (Bacteriophage phi29, UniProt P03680 SEQ:26-600); assay: FRET binding; 50 mM Tris pH 7.5, 50 mM NaCl, 10 mM MgCl2, 0.5 mM MnCl2; oligo 199 or 192 used; settings: tags: N-terminal His tag, linked to quantum dot; label: 3' Alexa Fluor 647; hairpin with 5' overhang
T1 chain: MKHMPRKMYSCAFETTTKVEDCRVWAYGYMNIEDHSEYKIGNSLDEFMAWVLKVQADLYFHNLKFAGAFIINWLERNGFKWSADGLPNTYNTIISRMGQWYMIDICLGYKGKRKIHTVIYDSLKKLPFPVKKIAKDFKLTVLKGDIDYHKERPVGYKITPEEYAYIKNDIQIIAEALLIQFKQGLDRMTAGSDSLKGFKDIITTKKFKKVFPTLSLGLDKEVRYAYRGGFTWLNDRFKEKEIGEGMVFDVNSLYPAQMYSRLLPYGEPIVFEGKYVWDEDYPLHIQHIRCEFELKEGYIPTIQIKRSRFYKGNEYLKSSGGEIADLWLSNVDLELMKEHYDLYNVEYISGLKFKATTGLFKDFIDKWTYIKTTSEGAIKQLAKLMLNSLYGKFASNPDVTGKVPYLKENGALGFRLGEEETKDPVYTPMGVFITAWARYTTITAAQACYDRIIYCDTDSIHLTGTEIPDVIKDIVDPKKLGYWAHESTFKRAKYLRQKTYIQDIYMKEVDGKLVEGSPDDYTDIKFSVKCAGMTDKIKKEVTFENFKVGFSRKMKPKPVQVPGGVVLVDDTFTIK

[5] = molecular target: T2, His-tagged F-linker Phi29 DNA polymerase D169A (exo-) (Bacteriophage phi29, UniProt P03680 SEQ:27-596); assay: FRET binding; Mg/Mn buffer; untreated, GST- or UDG/UGI-treated dots; settings: tags: His tag and F-linker, linked to quantum dot; label: 3' Alexa Fluor 647; hairpin with 5' overhang
T2 chain: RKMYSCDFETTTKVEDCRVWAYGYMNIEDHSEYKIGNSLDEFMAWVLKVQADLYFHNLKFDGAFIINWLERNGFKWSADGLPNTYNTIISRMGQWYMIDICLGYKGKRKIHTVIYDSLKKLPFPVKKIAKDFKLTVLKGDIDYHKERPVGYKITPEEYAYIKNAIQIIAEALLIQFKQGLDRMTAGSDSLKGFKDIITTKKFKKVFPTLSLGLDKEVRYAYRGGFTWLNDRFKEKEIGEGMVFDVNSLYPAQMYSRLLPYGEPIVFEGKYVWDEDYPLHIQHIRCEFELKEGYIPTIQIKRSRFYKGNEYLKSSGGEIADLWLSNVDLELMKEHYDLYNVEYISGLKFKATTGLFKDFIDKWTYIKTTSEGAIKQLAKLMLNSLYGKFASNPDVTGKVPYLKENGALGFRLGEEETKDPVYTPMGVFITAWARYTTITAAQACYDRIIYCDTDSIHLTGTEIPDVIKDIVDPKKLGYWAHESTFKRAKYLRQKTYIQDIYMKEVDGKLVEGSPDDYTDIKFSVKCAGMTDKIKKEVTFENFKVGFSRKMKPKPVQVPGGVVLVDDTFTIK

[6] = molecular target: T2, His-tagged F-linker Phi29 DNA …; assay: FRET binding; BSA-treated dots; dATP present; settings: tags: His tag and F-linker, linked to quantum dot; label: 3' Alexa Fluor 647; hairpin with 5' overhang
Source text: The binding reactions contained: 1× extension buffer, A1 nanoparticles-phi29 conjugates (or phi29 non-conjugated), oligonucleotide 229, and dATP. The binding reactions were serially diluted. […] The ratio of 605 nm/670 nm signals is depicted in FIG. 15C.

[7] = molecular target: T3, PKA-tagged Phi29 DNA polymerase (Bacteriophage phi29, UniProt P03680 SEQ:30-599); assay: FRET binding; settings: label: 3' Alexa Fluor 647-dC; hairpin with 5' overhang
T3 chain: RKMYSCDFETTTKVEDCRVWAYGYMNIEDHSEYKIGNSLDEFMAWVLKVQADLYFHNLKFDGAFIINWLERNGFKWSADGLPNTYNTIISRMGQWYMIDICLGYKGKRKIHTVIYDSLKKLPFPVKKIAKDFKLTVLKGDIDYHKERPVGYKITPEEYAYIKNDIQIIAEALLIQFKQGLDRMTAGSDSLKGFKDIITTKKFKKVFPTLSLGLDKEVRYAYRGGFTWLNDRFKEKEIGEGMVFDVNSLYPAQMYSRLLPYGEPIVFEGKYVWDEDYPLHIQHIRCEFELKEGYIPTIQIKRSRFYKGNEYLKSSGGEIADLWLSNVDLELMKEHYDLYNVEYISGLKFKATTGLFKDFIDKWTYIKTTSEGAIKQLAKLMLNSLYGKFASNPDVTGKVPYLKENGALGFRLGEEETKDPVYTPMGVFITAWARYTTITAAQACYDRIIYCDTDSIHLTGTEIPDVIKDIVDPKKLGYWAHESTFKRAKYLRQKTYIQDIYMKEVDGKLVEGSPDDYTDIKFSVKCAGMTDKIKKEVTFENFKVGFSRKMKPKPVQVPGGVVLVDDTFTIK
Procedure: 50 μl of the primer/template was transferred from each well of row two into 50 μl of the sample in each well of row one.
The microtiter plate was placed on the plate reader which was set to measure fluorescence at 605 nm and 670 nm with excitation at 450 nm. The results are depicted in FIG. 11. […] The ratio of 605 nm/670 nm signals is depicted in FIG. 11C.

[8] = molecular target: T4, Phi29 DNA polymerase (HRP-treated quantum dot conjugate) (Bacteriophage phi29, UniProt P03680 P03680:1-575); assay: FRET binding; 250 nM oligo; settings: tags: His tag, label: 3' Alexa Fluor 647, hairpin with 5' overhang
T4 chain: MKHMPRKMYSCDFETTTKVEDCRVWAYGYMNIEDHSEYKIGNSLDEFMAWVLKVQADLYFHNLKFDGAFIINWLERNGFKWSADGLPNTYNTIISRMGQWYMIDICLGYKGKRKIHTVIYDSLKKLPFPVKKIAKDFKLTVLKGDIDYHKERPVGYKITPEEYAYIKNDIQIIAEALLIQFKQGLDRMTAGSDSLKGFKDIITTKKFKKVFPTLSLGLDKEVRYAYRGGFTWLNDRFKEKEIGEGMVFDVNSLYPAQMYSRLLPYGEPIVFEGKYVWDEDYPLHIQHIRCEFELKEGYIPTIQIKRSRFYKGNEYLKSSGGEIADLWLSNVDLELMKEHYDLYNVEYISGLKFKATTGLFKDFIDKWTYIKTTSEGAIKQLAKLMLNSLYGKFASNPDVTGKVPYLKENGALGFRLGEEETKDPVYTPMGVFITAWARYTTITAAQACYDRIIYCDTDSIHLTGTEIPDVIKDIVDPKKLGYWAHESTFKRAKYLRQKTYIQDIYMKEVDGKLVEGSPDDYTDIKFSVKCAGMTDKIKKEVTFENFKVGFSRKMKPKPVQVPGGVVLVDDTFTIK
Procedure: and 40 nM of the nanoparticle-polymerase conjugates in 50 mM Tris, 50 mM NaCl and 10 mM MgCl₂. The reaction was excited at 450 nm and emission (e.g., FRET) was detected as a ratio of intensities at 605/670 (dot emission/ALEXA FLUOR 647 emission).

Molecule: CGTTAACCGCCCGCTCCTTTGCAAC / GTTGCAAAGGAGCGGGCG [stopped-flow template/primer]
- activity [1]: 11 ms
- activity [2]: 14 ms
- activity [3]: 15 ms

Molecule: TTATCTTTGTGGGTGACAGGTTTTTCCTGTCACCC (structured_DNA) [oligo 199]
- binding result [4]: binds
- binding result [5]: binds

Molecule: TTTTTGCGGGTGACAGGTTTTTCCTGTCACCC (structured_DNA) [oligo 229]
- binding result [6]: binds

Molecule: TTATCTTTGTGGGTGACAGGTTTTTCCTGTCACCC (structured_DNA) [JX338]
- binding result [7]: binds

Molecule: TTATCTTTGTGGGTGACAGGTTTTTCCTGTCACC (structured_DNA) [AF647 hairpin (Example 15)]
- binding result [8]: binds
